Results from publication PMC2605612 (Experimental cell research, 2008).
Where a chain is given by its changes, count along the chain named. Names may count otherwise. Where two headings read alike, the source gives them in different places.

B1: Myc-hFis1[92-152] (domain or fragment, human, UniProt Q9Y3D6 92-152, looked up)
chain: KYVRGLLQTEPQNNQAKELERLIDKAMKKDGLVGMAIVGGMALGVAGLAGLIGLAVSKSKS
B2: Fis/OMP (other, UniProt Q9Y3D6 1-120, looked up)
chain: MEAVLNELVSVEDLLKFEKKFQSEKAAGSVSKSTQFEYAWCLVRSKYNDDIRKGIVLLEELLPKGSKEEQRDYVFYLAVGNYRLKEYEKALKYVRGLLQTEPQNNQAKELERLIDKAMKKPIFMVLVPVFALTMVAAWAFMRYRQQL
B3: Myc-hFis1[32-152]GGIDGG (domain or fragment, human, UniProt Q9Y3D6 32-152, looked up)
chain: KSTQFEYAWCLVRSKYNDDIRKGIVLLEELLPGGIDGGRDYVFYLAVGNYRLKEYEKALKYVRGLLQTEPQNNQAKELERLIDKAMKKDGLVGMAIVGGMALGVAGLAGLIGLAVSKSKS
B4: Myc-hFis1[32-152]Δα5 (domain or fragment, human, UniProt Q9Y3D6 32-152, looked up)
chain: KSTQFEYAWCLVRSKYNDDIRKGIVLLEELLPKGSKEEQRDYVFYLAVGNYRLKENQAKELERLIDKAMKKDGLVGMAIVGGMALGVAGLAGLIGLAVSKSKS
B5: Myc-hFis1[32-152] (domain or fragment, human, UniProt Q9Y3D6 32-152, looked up)
chain: KSTQFEYAWCLVRSKYNDDIRKGIVLLEELLPKGSKEEQRDYVFYLAVGNYRLKEYEKALKYVRGLLQTEPQNNQAKELERLIDKAMKKDGLVGMAIVGGMALGVAGLAGLIGLAVSKSKS
B6: Myc-hFis1[32-152]-Y87A (domain or fragment, human, UniProt Q9Y3D6 32-152, looked up)
chain: B5 chain with Y56A

Key:
[1] = biological target: the molecule itself; assay: cross-linking
[2] = biological target: the molecule itself; assay: cross-linking; remark: listed apart in the source

| Protein | stoichiometry N [1] | fold decrease in dimer formation against Myc-hFis1[32-152] [1] | stoichiometry N [2] |
| --- | --- | --- | --- |
| B1 | 2 | – | – |
| B2 | 2 | – | – |
| B3 | – | ~3 fold | – |
| B4 | – | ~8 fold | – |
| B5 | 5 | – | 4 |
| B6 | 2 | – | – |
